Laboratory results from patent US20250066498A1 (GO THERAPEUTICS, published 2025).
Numbering of substitutions follows the chain as printed. Where two headings read alike, the source gives them in different places. Ends that are not written are not given here. GalNAc = N-acetylgalactosamine O-linked to a serine or threonine side chain

How the values were obtained:
[1] = molecular target: T1, podoplanin glycopeptide ERGTKPPLEELSGK; experiment: BLI (Octet), peptide on biosensor, apparent affinity (Example 3)
T1 construct: also called PDPN glycopeptide; Tn antigen derived from podoplanin
T1 peptide: ERGT(GalNAc)KPPLEELSGK
Description: Antibody affinity and epitope binning of monoclonal antibodies can be assessed against specific antigens using BLI. […] The affinity is determined by fitting the binding curve to a specific model: a 1:1 monovalent model or a 2:1 bivalent model. The error (>95% confidence) is calculated by how close the generated curve matches the model.
To characterize the cross-reactivity between mAb237 the anti-glyco-LAMP1 antibodies 3C7, 13C3, and 13G2, the affinities of mAb237, 3C7, 13C3, and 13G2 against the glycosylated LAMP1 peptide, the unglycosylated LAMP1 peptide, and the podoplanin glycopeptide were determined by Octet. Table 8 summarizes the dissociation constants (Kd) for mAb237, 3C7, 13C3, and 13G2 against the glycosylated LAMP1 peptide, the unglycosylated LAMP1 peptide, and the podoplanin glycopeptide. No cross reactivity was observed despite the sequence similarities observed between mAb237 and 3C7, 13C3, and 13G2.

[2] = molecular target: T2, Tn-glycosylated LAMP1 on COSMC knock-out cells (human, UniProt P11279 29-417, Truncated O-glycans (Tn, GalNAc alpha1-O-Ser/Thr), because the COSMC chaperone is knocked out); experiment: cell-based or functional assay
T2 sequence (looked up): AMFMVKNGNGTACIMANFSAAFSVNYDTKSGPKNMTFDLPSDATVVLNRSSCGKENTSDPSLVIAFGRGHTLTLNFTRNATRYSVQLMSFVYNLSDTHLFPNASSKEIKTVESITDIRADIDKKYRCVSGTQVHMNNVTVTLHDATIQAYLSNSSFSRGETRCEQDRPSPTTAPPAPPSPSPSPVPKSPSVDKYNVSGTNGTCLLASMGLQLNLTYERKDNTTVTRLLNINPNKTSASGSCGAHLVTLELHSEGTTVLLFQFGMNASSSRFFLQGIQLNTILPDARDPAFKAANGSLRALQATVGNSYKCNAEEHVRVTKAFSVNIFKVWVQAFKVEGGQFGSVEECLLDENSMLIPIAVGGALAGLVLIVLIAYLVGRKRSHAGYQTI

[3] = molecular target: T2, Tn-glycosylated LAMP1 on COSMC …; experiment: cell-based or functional assay; remark: listed apart in the source
[4] = molecular target: T3, LAMP1 without Tn glycans on wild type cells (human, UniProt P11279 29-417, No Tn antigen (the wild type cells are Tn-negative)); experiment: cell-based or functional assay
T3 sequence (looked up): T2 sequence (looked up)

[5] = molecular target: T4, LAMP1-Tn peptide Biotin-CEQDRPSPTTAPPAPPSPSP (human, N-terminal biotin; O-linked GalNAc on the serine at position 7 and the threonines at positions 9 and 10); experiment: ELISA on plate-coated LAMP1-GP
T4 construct: Synthetic 20-mer glycopeptide made by FMOC synthesis; also called LAMP1 glycopeptide; glycosylated LAMP1 peptide
T4 peptide: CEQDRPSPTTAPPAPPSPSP
Description: 96-well Corning high bind ELISA microplates plates were coated with LAMP1 peptides titrated in 0.2 M bicarbonate buffer, pH 9.4 overnight at 4° C. in concentrations ranging from 0.08 μg/ml to 10 μg/ml. BSA was used as a control/measure of background. The plates were then blocked with SuperBlock™ (Thermo Fisher) for 1 hr at room temperature. After plate washing, the humanized variants of 13C3 were incubated on the ELISA plate for 1 hour. All tested variants were expressed and purified using conventional methods. Briefly, Expi-293 cells were transiently transfected with heavy and light chain constructs, antibodies were secreted into supernatant and purified using Protein A agarose beads. The plates were then washed, and then incubated with secondary antibody (1/3000 Goat Anti-mouse IgG (H+L) HRP (Abcam 62-6520)) for 1 hour. The plate was then washed and color was developed with 1-Step™ Ultra TMB (Thermo Fisher) for 2 minutes. Color development was then stopped with 2 N Sulfuric Acid. Absorbance at 450 nm was then measured.

[6] = molecular target: T4, LAMP1-Tn peptide …; experiment: BLI (Octet), LAMP1-GP on biosensor
[7] = molecular target: T2, Tn-glycosylated LAMP1 on COSMC …; experiment: cell-based or functional assay; remark: listed apart in the source
[8] = molecular target: T3, LAMP1 without Tn glycans on wild type …; experiment: cell-based or functional assay; remark: listed apart in the source

B1: mAb237 (antibody, V domains shown)
VH: QVQLQQSGGGLVQPGGSMKIFCAASGFTFSDAWMDWVRQSPEKGLEWVAEIRNKANNHETYYAESVKGRFTITRDDSKSRMSLQMNSLRAEDTGIYYCSGGKVRNAYWGQGTTVTVSS
VL: DIQLTQTPLSLPVSLGDQASISCRSSQSLVHSVGNTYLHWYLQKPGQSPKLLIYKVSNRFSGVPDRFSGSGSGTDFTLKISSVEAEDLGVYFCSQSTHVPTFGGGTKLEIK
notes: Recombinant mouse antibody bought from Creative Biolabs (Brooks et al., 2010), specific for the podoplanin Tn glycopeptide; also called wild type mAb237
[1]
  Kd: 1.53 nM

B2: 13C3-CART (other)
chain: DVVMTQTPLSLPVSLGDQASISCRSSQSLVHSNGNTYLHWYLQKPGQSPKLLINKVSNRFSGVPDRFSGSGSGTDFTLKISRVEAEDLGVYFCSQSTHVPRTFGGGTKLEIKGGGGSGGGGSGGGGSEVKLEDSGGGLVQPGGSMKLSCAASGFTFSDAWMDWVRHSPEKGLEWVAELRSKAFNHATYYAESVKGRFTISRDDSKSTVYLQMNSLRAEDTGIYYCTPNWDEGFAYWGQGTLVTVSATTTPAPRPPTPAPTIASQPLSLRPEACRPAAGGAVHTRGLDFACDFWVLVVVGGVLACYSLLVTVAFIIFWVRSKRSRLLHSDYMNMTPRRPGPTRKHYQPYAPPRDFAAYRSRVKFSRSADAPAYQQGQNQLYNELNLGRREEYDVLDKRRGRDPEMGGKPRRKNPQEGLYNELQKDKMAEAYSEIGMKGERRRGKGHDGLYQGLSTATKDTYDALHMQALPPR
[2]
  Time to kill 50% of cells (KT50), HaCAT COSMC-KO target cells, T cell ratio 10:1: 7.3 h

B3: GO-13C3-Human-v1 (vc-PAB-MMAE ADC) (other)
VH: EVQLVESGGGLVQPGGSLRLSCAASGFTFSDAWMDWVRHAPGKGLEWVAELRSKAFNHATYYAESVKGRFTISRDDSKNSVYLQMNSLKTEDTAVYYCTPNWDEGFAYWGQGTLVTVSS
VL: DVVMTQSPLSLPVTLGQPASISCRSSQSLVHSNGNTYLHWYQQRPGQSPRLLINKVSNRFSGVPDRFSGSGSGTDFTLKISRVEAEDVGVYFCSQSTHVPRTFGGGTKVEIK
modifications: Cleavable MMAE with maleimide (vc-PAB-MMAE) covalently linked; site not stated; DAR ~4
[3]
  IC50 for cell death, T47D COSMC-KO cells: 5.03 nM
[4]
  IC50 for cell death, T47D cells: > 100000 nM

B4: GO-13C3-Human-v2 (vc-PAB-MMAE ADC) (other)
VH: B3 VH with V5L, H39Q, A49S, S80T, V81L, K89R, T90A
VL: B3 VL
modifications: Cleavable MMAE with maleimide (vc-PAB-MMAE) covalently linked; site not stated; DAR ~4
[3]
  IC50 for cell death, T47D COSMC-KO cells: 5.4 nM
[4]
  IC50 for cell death, T47D cells: > 100000 nM

B5: 13C3-HV-23-B/13C3 KV2-A (antibody, V domains shown)
VH: B3 VH with V5L, H39Q, A49S, S80T, V81L, K89R, T90A
VL: B3 VL
notes: Humanized 13C3; also called HV23B/KV2A; humanized 13C3 candidate 3
[5]
  EC50: 0.0191 µg/mL
[6]
  Kd: 0.85 nM

B6: 13C3-HV-72-B/13C3 KV2-A (antibody, V domains shown)
VH: B3 VH with H39Q, A49G, V81L
VL: B3 VL
notes: Humanized 13C3; also called humanized 13C3 candidate 4
[5]
  EC50: 0.0257 µg/mL
[6]
  Kd: 8.2 nM

B7: 13C3-HV-23-C/13C3 KV2-A (antibody, V domains shown)
VH: B3 VH with V5L, H39Q, A49S, L51I, K54S, S80T, V81L, K89R, T90A
VL: B3 VL
notes: Humanized 13C3; also called humanized 13C3 candidate 5
[5]
  EC50: 0.0155 µg/mL
[6]
  Kd: 23.5 nM

B8: 13C3-HV-72-A/13C3 KV2-A (antibody, V domains shown)
VH: B3 VH
VL: B3 VL
notes: Humanized 13C3; also called HV-72A/KV2A; humanized 13C3 candidate 2
[5]
  EC50: 0.0262 µg/mL
[6]
  Kd: 3.1 nM

B9: 13G2-ADC (GGFG-DX8951) (other)
VH: EVRLEESGGGLVQPGGSMKLSCVASGFTFSDAWMDWVRQSPERGLEWVAELRSKTFNHATYYAESVRGRFTISRDDSKSTVYLQMNSLRAEDTGIYYCSPNWDEGFAYWGQGTLVTVSA
VL: DVVMTQIPLSLCVSLGDQASISCRSSQSLVHNNGNTYLHWYLQKPGQSPKLLINKVSKRFTGVPDRFSGSGSGTDFTLKISRVEAEDLGVYFCSQSTHVPRTFGGGTKLEIK
modifications: MC-GGFG-DX8951 covalently attached to the antibody (maleimide); site not stated; DAR ~5.6
[7]
  IC50 for cell death, T47D COSMC-KO cells: 5.6 nM
[8]
  IC50 for cell death, T47D cells: 4.4 nM

B10: 3C7-ADC (GGFG-DX8951) (other)
VH: EVKLEESGGGLVQPGGSMKVSCGASGFTFSDAWMDWVRQSPEKGLEWVAEMRSKAFNHAIYYAESVKGRFTISRDDSKSRVYLQMNLLRPEDTGIYYCTPNWDEGFAYWGQGTLVTVSA
VL: B9 VL with V3M, M4L, I7T, C12P, N32S, K58N, T61F
modifications: MC-GGFG-DX8951 covalently attached to the antibody (maleimide); site not stated; the DAR could not be calculated
[7]
  IC50 for cell death, T47D COSMC-KO cells: 4.5 nM
[8]
  IC50 for cell death, T47D cells: 504 nM

B11: GO-13C3 mouse (vc-PAB-MMAE ADC) (other)
VH: B9 VH with R3K, E6D, V23A, Q39H, R43K, T55A, R67K, S99T
VL: B9 VL with I7T, C12P, N32S, K58N, T61S
modifications: Cleavable MMAE with maleimide (vc-PAB-MMAE) covalently linked; site not stated; DAR ~4
[3]
  IC50 for cell death, T47D COSMC-KO cells: 4.5 nM
[4]
  IC50 for cell death, T47D cells: > 100000 nM

B12: 13C3-ADC (GGFG-DX8951) (other)
VH: B9 VH with R3K, E6D, V23A, Q39H, R43K, T55A, R67K, S99T
VL: B9 VL with I7T, C12P, N32S, K58N, T61S
modifications: MC-GGFG-DX8951 covalently attached to the antibody (maleimide); site not stated; DAR ~3.1
[7]
  IC50 for cell death, T47D COSMC-KO cells: 5.6 nM
[8]
  IC50 for cell death, T47D cells: 205 nM

B13: 13G2-CART (other)
chain: DVVMTQIPLSLCVSLGDQASISCRSSQSLVHNNGNTYLHWYLQKPGQSPKLLINKVSKRFTGVPDRFSGSGSGTDFTLKISRVEAEDLGVYFCSQSTHVPRTFGGGTKLEIKGGGGSGGGGSGGGGSEVRLEESGGGLVQPGGSMKLSCVASGFTFSDAWMDWVRQSPERGLEWVAELRSKTFNHATYYAESVRGRFTISRDDSKSTVYLQMNSLRAEDTGIYYCSPNWDEGFAYWGQGTLVTVSATTTPAPRPPTPAPTIASQPLSLRPEACRPAAGGAVHTRGLDFACDFWVLVVVGGVLACYSLLVTVAFIIFWVRSKRSRLLHSDYMNMTPRRPGPTRKHYQPYAPPRDFAAYRSRVKFSRSADAPAYQQGQNQLYNELNLGRREEYDVLDKRRGRDPEMGGKPRRKNPQEGLYNELQKDKMAEAYSEIGMKGERRRGKGHDGLYQGLSTATKDTYDALHMQALPPR
[2]
  Time to kill 50% of cells (KT50), HaCAT COSMC-KO target cells, T cell ratio 10:1: 8.75 h
